For assay [1], the target named is T1, human IL-1β (human, UniProt P01584 117-269). The experiment in a line: cell-based or functional assay.
A further assay deals with T2, human IL-1α (human, UniProt P01583 113-271).
T2 sequence (looked up): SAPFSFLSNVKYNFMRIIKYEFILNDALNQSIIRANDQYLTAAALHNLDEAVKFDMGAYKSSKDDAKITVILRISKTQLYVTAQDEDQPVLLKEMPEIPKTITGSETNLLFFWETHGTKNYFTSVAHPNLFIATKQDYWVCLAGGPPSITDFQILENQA
The experiment in a line: BIAcore (refers to Example 9). As for the experimental part:
Affinities and specificities of both Hu007 and Mu007 were determined using BIAcore measurements. BIAcore™ is an automated biosensor system that measures molecular interactions. (Karlsson, et al. (1991) J. Immunol. Methods 145: 229-240). In these experiments antibody was immobilized at low density on a BIAcoreTm chip. Ethyl-dimethylaminopropyl-carbodiimide (EDC) was used to couple reactive amino groups to purified goat anti-human IgG or oat anti-rabbit IgG to a flow cell of a carboxy-methyl (CM5) BIAcore™ sensor chip. Goat IgG was diluted in sodium cetate buffer, pH 4.0, and immobilized on a flow cell of a M5 chip using EDC to yield 1000 response units. Unreacted sites were blocked with ehanolamine. A flow rate of 60 μl/min was used. Multiple binding/elution cycles were performed by injection a 100 μl solution of 15 μg/mL Mu007 or Hu007 followed by human IL-1β, mouse IL-1β, rat IL-1β, cynomolgus monkey IL-1β, porcine IL-1β, human IL-1 receptor antagonist, and human IL-1α at decreasing concentrations for each cycle (e.g. 1500, 750, 375, 188, 94, 47, 23.5, 12, and 0 picomolar). Elution was performed with glycine-HCl, pH 1.5. BIAevaluation™ was used to analyze the kinetic data. Table 2 depicts the affinities of Hu007 and Mu007 for human and cynomolgus IL1β. […] Cynomolgus and porcein IL-1β had 100% binding to Hu007 relative to human IL-1β.
On the technique in general: SPR reads the build-up and loss of mass on a sensor chip optically.

In assay [2] the target is T1, human IL-1β. The experiment in a line: cell-based or functional assay. The source holds these as a separate data set.
Assay [3] addresses T1, human IL-1β. Briefly: BIAcore, antibody immobilized at low density, ligand flowed (refers to Example 9). Here is the method:
The binding affinity of the Mu007 antibody was determined using surface plasmon resonance (BIAcore™). In these experiments antibody was immobilized at low density on a BIAcore™ chip and ligand was flowed past. Build up of mass at the surface of the chip was measured. This analytical method allows the determination in real time of both on and off rates for binding. The Mu007 antibody has an affinity of approximately 6.0 picomolar (See Example 9). […] (See example 9). Hu007 comprises heavy and light chains that correspond to SEQ ID NO:17 and SEQ ID NO:13, respectively.
Affinities and specificities of both Hu007 and Mu007 were determined using BIAcore measurements. BIAcore™ is an automated biosensor system that measures molecular interactions. (Karlsson, et al. (1991) J. Immunol. Methods 145: 229-240). In these experiments antibody was immobilized at low density on a BIAcoreTm chip. Ethyl-dimethylaminopropyl-carbodiimide (EDC) was used to couple reactive amino groups to purified goat anti-human IgG or oat anti-rabbit IgG to a flow cell of a carboxy-methyl (CM5) BIAcore™ sensor chip. Goat IgG was diluted in sodium cetate buffer, pH 4.0, and immobilized on a flow cell of a M5 chip using EDC to yield 1000 response units. Unreacted sites were blocked with ehanolamine. A flow rate of 60 μl/min was used. […]

Assay [4] concerns the target T1, human IL-1β. Briefly: ELISA competition on coated human IL-1β, competitor biotinylated Mu007. As for the experimental part:
(§1) Wells of 96-well ELISA plates (Nunc-Immuno plate, Cat # 439454, NalgeNunc) were coated with 100 μμl of 0.5 μg/ml of human IL-1β in 0.2M sodium carbonate-bicarbonate buffer (pH 9.4) overnight at 4° C., washed with Wash Buffer, blocked with Superblock blocking buffer for 30 min at 37° C., and washed again with Wash Buffer. A mixture of biotinylated Mu007 (0.16 μg/ml final concentration) and competitor antibody (Mu007 or Hu007; starting at 100 μg/ml final concentration and serial 3-fold dilutions) in ELISA Buffer were added in triplicate in a final volume of 100 μl per well. As a no-competitor control, 100 μl of 0.16 μg/ml biotinylated Mu007 was used. As a background control, 100 μl of ELISA Buffer was used. ELISA plates were incubated at 37° C. for 2 hr. After washing the wells with Washing Buffer, 100 μl of 1 μg/ml HRP-conjugated streptavidin (Jackson ImmunoResearch) was added to each well. ELISA plates were incubated at room temperature for 30 min and washed with Washing Buffer. For color development, 100 μl/well of ABTS substrate was added. Color development was stopped by adding 100 μl/well of 2% oxalic acid. Absorbance was read at 415 nm.
(§2) Both Mu007 and Hu007 competed with biotinylated Mu007 in a concentration-dependent manner. […]
In general terms: ELISA stands for enzyme-linked immunosorbent assay.

Assay [5] concerns the target T1, human IL-1β. Briefly: ELISA competition on coated human IL-1β, competitor biotinylated Mu007, Exp. A. As for the experimental part:
as §1, §2

The target of assay [6] is T1, human IL-1β. Briefly: ELISA competition on coated human IL-1β, competitor biotinylated Mu007, Exp. B. Here is the method:
as §1, §2

Assay [7] concerns the target T1, human IL-1β. Briefly: ELISA competition on coated human IL-1β, competitor biotinylated Mu007, Exp. C. As for the experimental part: as §1, §2
The target of assay [8] is T1, human IL-1β. Briefly: ELISA competition on coated human IL-1β, competitor biotinylated Mu007, average. As for the experimental part: as §1, §2

Changes are numbered by the printed parent chain.

B1: mouse monoclonal antibody Mu007 (antibody, V domains shown)
VH: QVQLVQSGAEVKKPGASVKVSCKVSGYTFSRYWIEWVRQAPGKGLEWIGEILPGNGNINYNEKFKGKATITADTSTDTAYMELSSLRSEDTAVYYCSTIYYDYDQGFTYWGQGTLVTVSA
VL: DIKMTQSPSSMYASLGERVTITCKASQDIDRYLSWFQQKPGKSPKTLIYRVKRLVDGVPSRFSGSASGQDYSLTISSLQYEDMGIYYCLQYDEFPYTFGGGTKLEIK
One may read the Kd as the concentration at which binding is half-saturated. Read a low Kd as tighter binding. In the case of B1, in the assay with human IL-1β [1], the “inhibition of IL-1β stimulated proliferation of T1165.17 cells (3H-thymidine incorporation), average IC50 from three separate experiments” value stood at 0.22 nM. Further, the binding result in the assay with human IL-1α is “no binding”. Besides, the “IC50 (read off the curve)” value with human IL-1β [2] is ~0.2 nM. For the same molecule, the dissociation constant (Kd) with human IL-1β [3] was ~0.006 nM.

B2: humanized antibody Hu007 (antibody, human IgG1, kappa, V domains shown)
VH: B1 VH with A120S
VL: DIQMTQSPSSLSASVGDRVTITCKASQDIDRYLSWFQQKPGKAPKSLIYRVKRLVDGVPSRFSGSASGTDYTLTISSLQPEDFATYYCLQYDEFPYTFGQGTKLEIKR
notes: the listing entries may be nucleotide entries with a translation; also called Hu007 IgG1 monoclonal antibody
For B2, in the assay with human IL-1β [1], the “inhibition of IL-1β stimulated proliferation of T1165.17 cells (3H-thymidine incorporation), average IC50 from three separate experiments” value is 0.48 nM. In addition, in the assay with human IL-1β [1], the “neutralization of human IL-1β in the murine model of inflammatory stimulation, relative to Mu007” value was ~0.33 fold of Mu007. Further, the “IC50 (read off the curve)” value with human IL-1β [2] was ~0.4 nM. The “relative binding, fold less than that of Mu007” value with human IL-1β [4] is 1.3 fold. The same molecule gave a Kd with human IL-1β [3] of 0.01 to 0.02 nM. Moreover, the “Difference (IC50 of Hu007 against IC50 of Mu007)” value came to 0.98 ratio with human IL-1β [5], 0.88 ratio in the assay with human IL-1β [6], 0.82 ratio in the assay with human IL-1β [7] and 0.89 ratio in the assay with human IL-1β [8].

These data come from patent publication US20050075488A1 (published 2005).
